# Ends that are not written are not given here.
# Key:
# [1] = test system: FDP tendons; assay: In vitro tissue culture tendon healing model, gel patch with BMSC and/or Substance P: biomechanical testing; format: cell-based, dogs; settings: zone III tendon groups, Substance P 10^−9, 2 weeks and 4 weeks
# Method: Mixed-breed dogs being euthanized for other IACUC approved studies were used to harvest bone marrow from which bone marrow stromal cells (BMSCs) were cultured. The FDP tendons were harvested from dogs also being euthanized for other IACUC approved studies and these tendons were transected at similar levels, repaired with a single suture and incubated in tissue culture medium. Six repair groups was studied: (1) tendons ends opposed with two single loop sutures of 6/0 nylon (Ethicon, Somerville N.J.); (2) tendons repaired as in group 1 with the interposition of a collagen gel scaffold to the repair site (positive control group); (3) tendons repaired as in group 1 with the interposition of a BMSC-seeded collagen gel scaffold to the repair site; (4) tendons repaired as in group 1, with the interposition of a BMSC-seeded collagen gel scaffold to the repair site and addition of Substance P; (5) tendons repaired as in group 1, with the interposition of a BMSC-seeded collagen gel scaffold to the repair site and addition of GDF-5; and (6) tendons repaired as in group 1, with the interposition of a BMSC-seeded collagen gel scaffold to the repair site and addition of SP and GDF-5. […]
# Confluent plates of BMSC were washed twice with sterile PBS and then trypsinized. The cells were counted with a hemocytometer and centrifuged to remove the media, forming a cell pellet with a known number of cells. […]
# [2] = test system: BMSCs; assay: Quantitative RT-PCR of BMSCs cultured with GDF-5; format: cell-based, canine
# Method: (§1) Immediately after euthanasia, 8.0 mL of bone marrow was aspirated from each tibia using a 15 mL syringe containing 2.0 mL of heparin solution. Heparin was removed and the bone marrow cells from one dog were divided into three 100-mm dishes in 10 mL of standard medium, which consists of minimal essential medium (MEM) with Earle's salts (Gibco, Grand Island, N.Y.), 10% fetal calf serum and 1% antibiotics (Antibiotic-Antimycotic, Gibco). The bone marrow cells were incubated at 37° C. with 5% CO2 and 95% air at 100% humidity. After 3 days, the medium containing floating cells was removed and new medium was added to the remaining adherent cells. These adherent cells were considered to be BMSCs. The medium was changed every 3 days. After the BMSCs formed colonies, they were treated with EDTA-trypsin to produce a cell suspension and centrifuged at 1500 rpm for 5 minutes to remove the EDTA-trypsin solution. The concentrated cell suspension was gathered in one tube and seeded in new dishes. Recombinant human GDF-5 (MBL, Woburn, Mass.) was added to the culture medium at a concentration of 100 ng/mL and culture continued for and additional 10 days.
# Total RNA was extracted from culture cells using RNeasy Micro kit (Qiagen, Valencia, Calif.), according to the manufacturer's recommendations. The RNA concentration was determined using a NanoDrop (Thermo scientific, Waltham, Mass.). RNA was reverse transcribed into single-stranded cDNA with an anchored-oligo(dT) primer using Transcriptor First Strand cDNA Synthesis Kit (Roche). The reverse transcriptase was inactivated by heating to 85° C. for 5 minutes. The expression of tenomodulin (a marker of tenocyte differentiation), collagen type I and collagen type III was quantified with LightCycler 480 SYBR Green I Master kit (Roche) in a LightCycler 480 instrument (Roche). HPRT served as the reference gene. Five samples were measured in each group.
# [3] = test system: BMSCs; assay: MTT cell proliferation assay of BMSCs with rhGDF-5; format: cell-based, dogs; settings: day 10 of cell culture, 100 ng/mL rhGDF-5
# Method: as §1
# Quantification of cell proliferation and viability was measured using Cell Proliferation Kit I (Roche, Basel, Switzerland). […] The absorbance was measured using Spectra Max Plus (Molecular Devises, Sunnyvale, Calif.). […]
Molecule,maximum force compared with cell only control [1],"collagen type I mRNA expression, treated vs untreated cells ([2]; 100 ng/mL)","collagen type III mRNA expression, treated vs untreated cells ([2]; 100 ng/mL)","expression of tenomodulin mRNA compared with untreated cells ([2]; day 10, 100 ng/mL)",proliferation of BMSCs (MTT) compared with BMSCs without GDF5 stimulation [3]
"Substance P: neuropeptide, substance P (Sigma) (RPKPQQFFGLM-NH2; ends and bridges not checked; UniProt P20366 58-68, looked up)",significantly higher,,,,
"GDF-5: Recombinant human GDF-5 (MBL, Woburn, Mass.) (protein, UniProt P43026 382-501, looked up) Growth/differentiation factor …: APLATRQGKRPSKNLKARCSRKALHVNFKDMGWDDWIIAPLEYEAFHCEGLCEFPLRSHLEPTNHAVIQTLMNSMDPESTPPTCCVPTRLSPISILFIDSANNVVYKQYEDMVVESCGCR",,no significant difference,no significant difference,increased,significantly increased

# Source: patent publication US20120114755A1, “METHODS AND MATERIALS FOR TISSUE REPAIR” (MAYO FOUNDATION FOR MEDICAL EDUCATION AND RESEARCH, priority 2009, published 2012)
